The nanobody polyreactivity screen of Harvey et al. (2022)

Test: yeast display, Sf9 membrane polyspecificity reagent, FACS + sequencing; frameworks hold sequencing errors
In short: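 Using colony PCR, genes from sorted yeast display clones were amplified, then sequenced on MiSeq at 2 × 250 and filtered by CDR length. The clones had been stained with 10% biotinylated, detergent-solubilized Sf9 membrane reagent for 1 hour at 4 °C and sorted by FACS into low and high (top ~1%) gates on anti-HA and streptavidin fluorescence. Polyreactivity labels come from the gate of origin.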
With “QVQLVESGGGLVKAGGSLRLSCAASGSIFDFYVMGWYRQAPGKERELVAAISSGGSTYYADSVKGRFTISRDNAKNTVYIKMNSLKPEDTAVYYCAAYPEYVSGAWYDYWGQGTQVTVSS” the “polyreactivity (PSR sort gate)” value was “low polyreactivity”. In the case of “QVQLVESGGGLVQAGGSLRLSCAASGITFRYYAMGWYRQAPGKERELVATINWSGGTTHYADSVKGRFTISRENAKNTVYLQMNSLKPEDTAVYYCAADPWQYKLGWPPFTYDYWGQGTQVTVSS”, the “polyreactivity (PSR sort gate)” value is reported as “high polyreactivity”. For “QVQLVESGGGLVQAGGSLRLSCAASGRTFQDNAMGWYRQAPGKERELVAAMSWRGGSTNYADSVKGRFTISRDNAKNTVYLQMKSLKPEDTAVYYCYRDQRKYGKLDYWVQGTQVTVSS”, the “polyreactivity (PSR sort gate)” value was “low polyreactivity”. With “QVQLVESGGGLVQAGGSLRLSCHASGRIIVPYVMGWYRQAPGKERELVASISDSDTSTYYADSVKGRFTMSRDNAKNTVYLQMNSLKPEDTAVYYCNVDFWGQGTQVTVSS” the “polyreactivity (PSR sort gate)” value was “low polyreactivity”. For “QVQLVESGGGLVQAGGSLRLSCAASGSILYNNAMGWYRQAPGKERELVAAIDLSTGSTYYADSVKGRFTISRDNAKNTVYLQMNSLKPEDSSVYYCAAGKPLGSSTKYRPYDYWGQGTQVTVSS”, the “polyreactivity (PSR sort gate)” value was “low polyreactivity”. With “QVQLVESGGGLVQAGGSLRLSCAASGSTYRYNAMGWYRQAPGKERELVAAITSGGRTNYADSVKGRFTISRDNAKITVYLQMNSLKPEDTAVYYCAARRYGRNWHYDYWGQGTQVTVSS” the “polyreactivity (PSR sort gate)” value was “high polyreactivity”. For “QVQLVESGGGLVQAGGSLRLSCAASGNTFYVNVMGWYRQAPGKERELVARITTSGGSTSYADSVKGRFTISRDNAKNTVYLQMNSLKPEDTAVYYCAADFPEYYLPYDYWGQGTQVTVSS”, the “polyreactivity (PSR sort gate)” value was “low polyreactivity”. In the case of “QVQLVESGGGLVQAGGSLRLSCAASGIIFSGNAMGWYRQAPGKERELVAAITLSGGSTYYADSVKGRFTISRDNAKNTVYLQMNSLKPEDTAVYYCNAVYDTNYSLRDIDTEYGSWGQGTQVTVSS”, the “polyreactivity (PSR sort gate)” value is reported as “low polyreactivity”. For “QVQLQESGGGLVQAGGSLCLSCAASGTIFFDRDMGWYRQAPGKEREFVAAINPGGSAYYADSVKGRLPLAAITHTVYLQRNSLKPEVTAVYYCAAKLFDVYGYYYWGQGTDVTVSS”, the “polyreactivity (PSR sort gate)” value was “low polyreactivity”. In the case of “QVQLVESGGGLVQAGGSLRLSCAASGSTQYSYAMGWYRQAPGKERELVAAINSGSNTYYADSVKGRFTISRDNAKNTVYLQMNSLKPEDTAVYYCAAKGIIYTGYDGARRAYGYWGQGTQVTVSS”, the “polyreactivity (PSR sort gate)” value is reported as “high polyreactivity”. With “QVQLVESGGGLVQAGGRLRLSCAASGRIFYTYTMGWYRQAPGKERELVATITDGTRTNYADSVKVRFTISRDNAKITVYLQMNSLKHEDTAVYYCNAAGRWHDLYRINYDYWGQGTQVTVSS” the “polyreactivity (PSR sort gate)” value was “low polyreactivity”. With “QVQLVESGGGLVQAGGSLRLSCAASGITLYFYAMGWYRQAPGKERELVAAISRGGRTYYADSVKGRFTISRDNAKNTVYLQMNSLKPEDTAVYYCAARYTSEYSAFDYWGQGTQVTVSS” the “polyreactivity (PSR sort gate)” value was “low polyreactivity”. With “QVQLVESGGGLVQAGGSLRLSCAGSGINFHLYAMGWYRQAPGKERELVAAISWNGSSTYYADSVKGRFTISRDNAKNTVYLQMNSLKPEDTAVYYCAASYGYFEDYGYWGQGNQVTVSS” the “polyreactivity (PSR sort gate)” value was “low polyreactivity”. For “QVQLVESGGGLVQAGGSLRLSCAASGRIFYWYAMGWYRQAPGKERELVAAISRSGSRTYYPDSVKGRFTISRDNAKNTVYLQMNSLKPEDTAVYYCAAVSGTGTAMDYWGQGTQVTVSS”, the “polyreactivity (PSR sort gate)” value was “high polyreactivity”. For “QGQLVESGGGLVQAGGSLRLSCAASGSIFPVYAMGWYRQAPGKEREFVARIRFSGGRTYYADSVQGRFTISRDNAKNTVYLQMNSLKPEDTAVYYCAKAQYSGRYGYWGQGTQVTVSS”, the “polyreactivity (PSR sort gate)” value was “high polyreactivity”. For “QVQLVESGGGLFQAGGSLRLSCAASGITFERYTMGWYRQAPGKERELVAAIRGSGGTYYADSVKGRFTISRENAKNTVYLQMNSLKPEDTAVYYCNAVLWVYYHWPYDYWGQGTQVTVSS”, the “polyreactivity (PSR sort gate)” value was “high polyreactivity”. For “QVQLVESGGGLVQAGGSLRLSCAASGITFRRYTMGWYRQAPGKERELVASISSTGSTNYADSVKGRFTISRDNAKNTVYLQMNSLKPEDTAVYYCAARRPYPYVGYEYWGQGTQVTVSS”, the “polyreactivity (PSR sort gate)” value was “high polyreactivity”. With “QVQLVESGGGLVQAGGSLRLSCDASGSIFQAYAIGWYRQAPGKEREFVAVITWGGGSTSYADSVKGRFTISRDNAKNTVYLQMNSLKPEDTAVYYCNADSQEWIWLYEGYDYWGQGTQVTVSS” the “polyreactivity (PSR sort gate)” value was “low polyreactivity”. For “QVQLVESGGGLVQAGGSLRLSCAASGYTFLRNAMGWYRQAPGKERELVAAISYSGGGTYYPDSVMGRFTISRDHAKNTVYLKMNSLKPEDTAVYYCNVAQRYYGNFFSSRYESWGQGTQVTVSS”, the “polyreactivity (PSR sort gate)” value was “low polyreactivity”. With “QVQLVESGGGLVQAGGSLRLSCAASGTYFNAMGWYRQAPGKERELVAAISLSGGRTYYADSVKGRFTISRDNAKNTVYLQMNSLKPEDTAVYYCAASNRGATRRQVNYWGQGTQVTVSS” the “polyreactivity (PSR sort gate)” value was “high polyreactivity”. In the case of “QVQLVESGGGLVQAGGSLRLSCAASGGTFRSYTMGWYRQAPGKERELVAAISWGGSTYYADSVKGRFTISRDNAKNTVYLQMNSLKPEDTAVYYCAADYWSFYRKRDYWGQGTQVTVSS”, the “polyreactivity (PSR sort gate)” value is reported as “low polyreactivity”. In the case of “QVQLVESGGGLVQAGGSLRLSCAASGSTFTSYAMGWYRQAPGKERELVAGITSRGTSTYYADSVKGRFTISRDNAKNTVYLQMNSLKPEDTAVYYCARDPYQPKVSGRLFLRYDYWGQGTQVTVSS”, the “polyreactivity (PSR sort gate)” value is reported as “high polyreactivity”. With “QVQLVESGGGLVQAGGSLRLSCAASGRIFNSNAMGWYRQAPGKERELVAAISSSGTRTYYADSVKGRFTISRDNAKNTVYLQMNSLKPEDTAVYYCNTYYKYAVVPSGGYWGQGTQVTVSS” the “polyreactivity (PSR sort gate)” value was “high polyreactivity”. With “QVQLVESGGGLVQAGGSLRLSCAASGRTFYPYAMGWYIQAPGKEREFVATITWSGTTTYYADSVKGSFTISRDNAKNTFYLQMNSLKPVDTAVYYCAADVWEVVTPYGTIDDDYWGQGTQVTVSS” the “polyreactivity (PSR sort gate)” value was “high polyreactivity”. For “QVQLVESGGFLVQAGGSLRLSCAASGFTFAKYAMGWSRQAPRKERELVAVITSSGGRTYYADSVKARFTISRDTAKNTVYLQMISLKPEDTAVYYCNAGKYVYATSQYDYWGQGTQVTVSS”, the “polyreactivity (PSR sort gate)” value was “high polyreactivity”. For “QVQLVESGGGLVQAGGSLSLSCAASGRTFGYNAKGWYRQAPGKERELVASISYRGGSTYYADSVKGRFTISRDNAKNSVYLQMNSLKPEDTAVYYCNKYYVLREYYWGQGTQVTVSS”, the “polyreactivity (PSR sort gate)” value was “high polyreactivity”. In the case of “QDQLVESGGGLVQAGGSLRLSCAASGSIFPVYDMGWSRQAPGTEREMVAAISVSGGSTYYADSVKGRFTISRDNAKNTVYLQMKSLKPEDTAVYYCIADVHLYWYWYYEREDYWGQGTQVTVSS”, the “polyreactivity (PSR sort gate)” value is reported as “low polyreactivity”. With “QVQLVESGGGLVQAGGSHRLSCAASGRSFKYYAMGWYRQAPGKERELVARISPSSGNTYYADSVKGRFTISRDNAKNTVYLQMNSLKPEDTGVYVCATVPHYNGFNYWGQGTQVTVSS” the “polyreactivity (PSR sort gate)” value was “high polyreactivity”. In the case of “QVQHVESRGGLVQAGGSLRLSCAASGSIFNPYDMGWYRPATGKDRELVAAIDWSGGSTYYADSVKGRFTISRDNAKNTVYLQMNSLKPEDSAVYYCAAGYGGWAWNHVSYGGDYWGQGTQVTVSS”, the “polyreactivity (PSR sort gate)” value is reported as “low polyreactivity”. With “QVQLVESGGGLVQAGGSLRLSCAASGRTFSYNAMGWYRQAPGKEWELVAAISWGGGSTYYADSVKGRFTISRDNAKNTVYLQMNSLKPEDTAVYYCAAKRLTSRQHDYWGQGTQVTVSS” the “polyreactivity (PSR sort gate)” value was “high polyreactivity”. With “QVQLVESGGGLVQAGGSLRLSCAASGSTLTFNAMGWYIQAPGKERELVAAISWSDTDTYYADSVKGRFTISRDNAKNTVYLQMNSLKPEDTAVYYCAATLSAYEMDYWGQATQVTVSS” the “polyreactivity (PSR sort gate)” value was “low polyreactivity”. In the case of “QVQLVESGGGLVQAGGSLRLSCAASGSIFSTYAMGWYRQAPGKERELVATIRRGGSTYYADSVKGRFTISRDNAKNTVYLQMNSLKPEETAVYYCAGTVSSYPYYRYYTWGQGTQVTVSS”, the “polyreactivity (PSR sort gate)” value is reported as “high polyreactivity”. In the case of “QVQLVESGGGLVQAGGSLRLSCAASGSTFYYNAMGWYRQAPGKEREFVASISWRGGRTYYADSVKGRFTISRDNAKNTVYLQMNSLKPEDTAVYYCAKGYLALGQPDDYWGQGTQVTVSS”, the “polyreactivity (PSR sort gate)” value is reported as “high polyreactivity”. In the case of “QVQLVESGGGLVQAGGSLRLSCAAYGITFRAYAMGWYRQAPGKEREFVASISGSGGSTYSADSVKGRFTISRDNAKNTVYFQMNSLKPEDTAVYYCATRRWGLATPTRYDYWGQGTQVTVSS”, the “polyreactivity (PSR sort gate)” value is reported as “high polyreactivity”. With “QVQLVESGGGLVQAGGSLRLSCAASGFILDRYAMGWYRQAPGKERELVASITSGGSTNYADSVKGRFTISRDNAKNTVYLQMNSLIPEDTAVYYCAAYPWRYWNHEYNYWGQGTQVTVSS” the “polyreactivity (PSR sort gate)” value was “high polyreactivity”. With “QVQLVESGGGLVQAGGSLRLSCAASGRTVRRYARGWYRQAPGKERELVATIRSGDNTNYADSVKGRFTISRDNAKNTVYLQMNSLKPEDTAVYYCNRSPKSGQVTYLYSVNAHYDYWGQGTQVTVSS” the “polyreactivity (PSR sort gate)” value was “low polyreactivity”. In the case of “QVQLVESGGGLVQAGGSLRISCAASGRTFRWYAMGWYRQAPGKERELVAAISWNGGSTYYADSVKGRFTISRDNAKNTVYLQMNSLKPEDTAVYYCAVKAGPSRPYYSWGQGTQVTVSS”, the “polyreactivity (PSR sort gate)” value is reported as “high polyreactivity”. For “QVQLVESGGGLVQAGGSLRLSCAPSGRTFYTYAMGWYRQAPGKERELVAAITRRGGSTFYADSVKGRFTISLDNAKNPVDLQMNSLKPEDTAVYYCAAGVVWSYSLYSIYEYDYWGQGTQVTVSS”, the “polyreactivity (PSR sort gate)” value was “high polyreactivity”. For “QVQLVESGGGLVQAGGSLRLSCAPSGRIFWFNMGCYRQAPGKERELVAAINSGGRTNYADSVKGRFTISRDNAQNTVYLQMNSLKPEDTAVYYCNARYYQVRRWYHYDYSGQGTQVTVSS”, the “polyreactivity (PSR sort gate)” value was “high polyreactivity”. For “QVQLVESGGGLVQAGGSLRLSCAASGLTINGNTMGLYRQAPGKERELVAVIDWSGGSTYYADSVKGRFTISRDNAKNTVYLQMNSLKPEDTAVYYCNAETRDPILYGEYDYWGQGTQVTVSS”, the “polyreactivity (PSR sort gate)” value was “low polyreactivity”. For “QVQLVESGGGLVQAGGSLRLSCAASGSIFHTYAMGWYIQAPGKERELVAAITVSGGDTYYADSVKGRFTISRDNEKNNVYLQMNSLKPEDTAVYYCAVDTTTSYTVAYDYWGQGTQVSVSS”, the “polyreactivity (PSR sort gate)” value was “low polyreactivity”. For “QVQRVESGGGLVQAGGSLLLSCAPSGSIFSDNSMGWYRQAPGKERELVAAITSGGDTKYADSVKGRFTISRDNAKNTVYLQMNSLKPEDTAFYYCAAGIRYQASFDSWGQGTQVTVSS”, the “polyreactivity (PSR sort gate)” value was “low polyreactivity”. For “QVQLVESGGGLVQAGGSLRLSCAASGSTFYGYAMGWYRQPPGKERELVAAITIGGRTYYADSVKGRFTISRDNAKNTVYLQMNSLKPEDTAVYYCAAAILRTVPELGSRRTYYYWGQGTQVTVSS”, the “polyreactivity (PSR sort gate)” value was “high polyreactivity”.
